Tests used:
[1] = biological target: human MPP8 (M-phase phosphoprotein 8) chromodomain (human) (UniProt Q99549); test: SEC; gel filtration of hMPP8 chromodomain; column buffer 20 mM Tris (pH 8.0), 400 mM NaCl
[2] = biological target: human MPP8 (M-phase phosphoprotein 8) chromodomain (human) (UniProt Q99549); test: SEC; size exclusion of hMPP8 chromodomain in the presence or in the absence of H3K9me3 peptide
[3] = tested on: hMpp8 chromodomain mutant, Glu101 mutated to proline; test: Histone H3K27 peptide pulldown, hMPP8 chromodomain mutant with Glu101 mutated to proline; assay type: binding, human; details: Fig. S1B
From the text: (§1) It is noteworthy that the sequence motif of H3K27 is similar to H3K9 tail (KAARK^27S versus QTARK^9S). However, methylated histone H3K27 cannot interact with hMPP8 chromodomain. To explain why hMPP8 specifically recognizes methylated H3K9, we built a mutant model that hMPP8 binds to methylated H3K27. We mutated residues Gln5 and Thr6 of the QTARK^9S motif to KA to generate a motif of KAARK^9S, which shared the same amino sequence around the K27 site in histone H3. […] To further validate the hypothesis, hMpp8 chromodomain mutants were designed to rescue the binding ability to H3K27me3. Based on our structures, residues Lys100, Glu101 and Val102 were mutated to proline, respectively, to generate enough space where the side chain of Lys5 can insert.
(§2) Supplementary file pone.0025104.s001.tif: Figure S1 hMPP8 specifically recognizes methylated H3K9 rather than H3K27. (A) A mutant structure model for hMPP8 binds to KAARK(me3)S histone motif. Gln5 and Thr6 of the QTARK^9S motif were mutated to KA in this model. (B) Histone H3K27 peptide pulldowns with proteins of wild type hMpp8 chromodomain and indicated mutants, respectively. […] Molecular mass was measured by size exclusion. (F) Binding affinity of hMPP8 chromodomain to H3K4me3 (left panel, measured by ITC method) and H3K27me3 peptide (right panel, measured by SPR method). […]

[4] = biological target: T1, hMPP8 chromodomain (Homo sapiens, UniProt Q99549); test: Surface plasmon resonance (SPR) binding of histone peptides to hMPP8 chromodomain; details: BIAcore3000, 14°C, synthetic peptide residues 19 to 33, 150 mM NaCl, 20 mM Tris, pH 8.0, 1 mM DTT, Fig. S1F right panel
T1 construct: The chromodomain of human MPP8 (residue 56–116) was inserted into a pET28a-MHL vector; His-tag (cleaved yes); made in house; host or cells: E. coli BL21 (DE3) Codon plus RIL
T1 sequence (Q99549 56-116): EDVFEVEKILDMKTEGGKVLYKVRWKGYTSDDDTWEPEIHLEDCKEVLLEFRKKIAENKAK
Procedure: The binding affinity of hMPP8 chromodomain and histone peptides were determined at 14°C using BIAcore3000 instruments. The biotinylated peptides were immobilized on a streptavidin-coated biosensor chip (SA-Chip). All experiments were carried out in the continuous-follow buffer (150 mM NaCl, 20 mM Tris, pH 8.0, 1 mM DTT). The injected protein sample was flowed for 3 min over the peptide coated SA-Chips at a follow rate of 30 ml/min and the change of response unit (RU) was recorded. Protein dissociation was monitored for 3 min by following the continuous-follow buffer at a follow rate of 30 ml/min over the SA-Chips. The KD was determined by global nonlinear regression fitting of the association and dissociation curves according to the Langmuir binding isotherm model.

[5] = tested on: hMpp8 chromodomain mutant, Lys100 mutated to proline; test: Histone H3K27 peptide pulldown, hMPP8 chromodomain mutant with Lys100 mutated to proline; assay type: binding, human; details: Fig. S1B
From the text: as §1, §2

[6] = Size exclusion chromatography, oligomerization state in solution; assay type: physicochemical; details: 20 mM Tris (pH 8.0), 400 mM NaCl, Fig. 1D
From the text: Figure 1 Overall structure of hMPP8 chromodomain. (A) Sequence alignment of chromodomains of human MPP8, Drosophila HP1 and Drosophila Polycomb. Secondary structural elements (arrows for β strands and rectangles for α helices) are indicated, η represent 3_10 helix. Methylated H3K9 binding residues are marked by stars. Residues involved in dimerization of human Mpp8 and Drosophila Polycomb are marked by diamonds and triangles, respectively. The alignment was created with Espript (http://espript.ibcp.fr/Espript/Espript). (B) Cartoon representation of the crystal structure of hMPP8 chromodomain. The two subunits of the homodimer are colored in cyan and green, respectively, and the secondary structure regions in both proteins are marked. (C) Interactions between the two subunits of the hMPP8 chromodomain homodimer. The dimer interface is formed by strand β2 through an antiparallel arrangement. (D) Gel filtration of hMPP8 chromodomain (left panel). The column buffer was 20 mM Tris (pH 8.0), 400 mM NaCl. The molecular weight of hMPP8 chromodomain monomer was measured using tricine-SDS-PAGE (right panel). TEXT PRINTED IN THE PICTURE: (D) no label printed: 100.09 ml (13.6 kDa)
To determine the oligomerization state of hMPP8 chromodomain in solution, size exclusion experiment was performed. […] The molecular weight of hMPP8 chromodomain monomer is about 8.0 kD. […]

## human MPP8 (M-phase phosphoprotein 8) chromodomain (from UniProt Q99549 56-116) (domain or fragment)
[1]
  stoichiometry N: 2
[2]
  stoichiometry N: 2

## H3K27me3: synthetic H3K27me3 (residues 19 to 33) peptide (QLATKAARKSAPATG; K27 trimethylation; UniProt P68431 20-34, looked up, fragment)
[3]
  binding in peptide pulldown: able to bind H3K27me3 peptide weakly
[4]
  binding (SPR): does not exhibit detectable binding
[5]
  binding in peptide pulldown: able to bind H3K27me3 peptide weakly

B1: hMPP8 chromodomain: recombinant chromodomain of human MPP8 (residue 56–116), expressed in BL21 (DE3) Codon plus RIL (protein, UniProt Q99549 56-116, looked up, fragment)
chain: EDVFEVEKILDMKTEGGKVLYKVRWKGYTSDDDTWEPEIHLEDCKEVLLEFRKKIAENKAK
modifications: chromodomain
notes: recombinant chromodomain of human MPP8 (residue 56–116), expressed in BL21 (DE3) Codon plus RIL
[6]; free form
  oligomerization state in solution: homodimer
[6]; monomer about 8.0 kD
  apparent molecular weight in solution: 13.6 kD

Reference: PMC3192050, “Structural Basis for Specific Binding of Human MPP8 Chromodomain to Histone H3 Methylated at Lysine 9” (PLoS ONE, 2011)
